Assays:
[1] = target: T1, biotinylated human NKG2D (Example 1) (human, UniProt P26718 78-216); assay: BLI (Octet), Kd = kOFF/kON
T1 construct: also called recombinant biotinylated NKG2D
T1 sequence (looked up): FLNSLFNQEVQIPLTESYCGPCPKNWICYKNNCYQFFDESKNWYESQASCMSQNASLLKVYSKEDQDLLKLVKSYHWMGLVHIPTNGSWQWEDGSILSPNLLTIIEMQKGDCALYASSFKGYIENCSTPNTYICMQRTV

[2] = target: T1, biotinylated human NKG2D (Example 1); assay: BLI (Octet), biotinylated human NKG2D coated, 100 nM analyte
[3] = target: T1, biotinylated human NKG2D (Example 1); assay: BLI (Octet)
human NKG2D-Fc [4] = target: T2, human NKG2D-Fc (human, UniProt P26718 78-216); assay: competition ELISA vs coated WT sMICA
T2 construct: also called natural NKG2D-Fc; not shown: Fc
T2 sequence (looked up): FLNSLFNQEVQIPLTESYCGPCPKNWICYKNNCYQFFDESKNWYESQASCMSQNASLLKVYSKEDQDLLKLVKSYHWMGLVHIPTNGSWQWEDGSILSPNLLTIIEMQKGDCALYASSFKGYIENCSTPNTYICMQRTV
Description: (§1) To the NKG2DLs in the above example, we directly attached heterologous molecules such as a polypeptide to each of these 4 modified α1-α2 NKG2DLs using a linker peptide. Four His-tagged proteins (SEQ ID NOs.: 25-28) consisting of modified NKG2DLs with attached heterologous molecules were expressed in insect cells and purified to characterize their NKG2D binding affinities and kinetic binding parameters. Using a competitive binding ELISA, we determined the relative NKG2D binding affinities of the 4 modified α1-α2 variants.

[5] = target: T3, NKG2D on the human NK cell line NKL (human, UniProt P26718 1-216); assay: cell-based or functional assay
T3 sequence (looked up): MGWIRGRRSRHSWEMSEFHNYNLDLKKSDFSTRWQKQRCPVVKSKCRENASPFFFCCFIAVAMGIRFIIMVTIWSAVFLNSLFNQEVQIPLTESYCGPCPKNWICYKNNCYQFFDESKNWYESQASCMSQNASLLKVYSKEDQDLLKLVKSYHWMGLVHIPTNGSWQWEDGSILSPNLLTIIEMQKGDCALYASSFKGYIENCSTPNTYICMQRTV

human NKG2D-Fc [6] = target: T2, human NKG2D-Fc; assay: competition ELISA vs coated WT sMICA, 2 nM human NKG2D-Fc
Description: as §1

Fc-NKG2D.wt [7] = target: T4, Fc-NKG2D.wt (human); assay: ELISA (called Kd in the text)
T4 construct: also called NKG2D.wt Y|Y; natural Fc-NKG2D
T4 sequence (chain, as listed by the source limits assumed): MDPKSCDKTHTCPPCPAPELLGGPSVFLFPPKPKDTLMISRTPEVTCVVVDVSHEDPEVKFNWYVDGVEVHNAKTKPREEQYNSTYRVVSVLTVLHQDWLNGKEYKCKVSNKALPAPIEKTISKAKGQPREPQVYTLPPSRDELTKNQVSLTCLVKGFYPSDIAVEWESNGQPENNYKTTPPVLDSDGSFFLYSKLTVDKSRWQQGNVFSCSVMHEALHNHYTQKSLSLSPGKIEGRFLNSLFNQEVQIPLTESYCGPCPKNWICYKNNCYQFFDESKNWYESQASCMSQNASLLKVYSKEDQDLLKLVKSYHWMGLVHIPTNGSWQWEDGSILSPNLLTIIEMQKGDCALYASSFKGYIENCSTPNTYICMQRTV
Procedure: (§2) The binding affinities of α1-α2 variants to the extracellular domains of natural (wild-type) NKG2D and non-natural eNKG2D proteins were analyzed using a plate-based ELISA method. Each of the SEC fractionated natural Fc-NKG2D and non-natural Fc-eNKG2D fusions were coated overnight at 4° C. onto separate wells of Nunc Maxisorp 96 well plates (Thermo Fisher Scientific, Waltham, Mass.) using a coating concentration of 1 μg/mL in phosphate-buffered saline (PBS). The plates were washed three times in PBS/0.05% Tween-20 (PBS-T) at 20-22° C., and blocked with 0.5% bovine serum albumin in PBS (PBS-B) for 2 hours at 20-22° C. MicAbodies were titrated against the plate-bound natural or non-natural Fc-NKG2D fusions for 60 minutes at 20-22° C. in PBS/0.5% bovine serum albumin (BSA)/0.05% Tween-20 (PBS-BT), washed 3 times with PBS-T at 20-22° C., and the bound bispecific proteins detected using an HRP-conjugated anti-human kappa in PBS-BT (Abcam, Cambridge Mass.) and developed with 1-Step™ Ultra TMB ELISA Substrate Solution (Thermo Fisher Scientific, Waltham, Mass.).

Fc-eNKG2D4 (Y152V) [8] = target: T5, Fc-eNKG2D4 (Y152V) (human); assay: BLI (Octet), Fc-eNKG2D captured on AHC tips, 20 nM MicAbody
T5 construct: also called eNKG2D4 V|Y
T5 sequence (chain, as listed by the source Y152V Y152V limits assumed): as the sequence (chain, as listed by the source limits assumed) above, with Y312V counted along it
Procedure: (§3) Additional biophysical analysis of eNKG2D variant binding to ligands was also performed with Bio-Layer Interferometry (BLI) using the FortéBio Octet system (all FortéBio LLC, Fremont, Calif.). For these experiments human NKG2D ligands MICA-Fc, MICB-Fc, ULBP1-Fc, ULBP2-Fc, ULBP3-Fc, and ULBP4-Fc were purchased from R&D Systems, Inc. (Minneapolis, Minn.). Ligands in the MicAbody format were captured on anti-human IgG Fc capture (AHC) biosensor tips. After a baselines were established, tips were exposed to a titration series of Fc-eNKG2D fusion proteins ranging from 300 nM to 0.41 nM and association/dissociation kinetics monitored with all steps performed in PBS-BT. Subsequently, Fc-eNKG2D fusion proteins were captured onto AHC tips and MicAbodies were titrated to characterize binding kinetics.
(§4) Binding analysis under the same conditions was then performed with Fc-eNKG2D fusion receptors as the capture agent, and the level of binding for each eNKG2D ranked as a percentage of the maximal binding response established by Fc-NKG2D.wt (Table 2).

Fc-eNKG2D14 (Y152L) [9] = target: T6, Fc-eNKG2D14 (Y152L) (human); assay: as above
T6 construct: also called eNKG2D14 L|Y
T6 sequence (chain, as listed by the source Y152L Y152L limits assumed): as the sequence (chain, as listed by the source limits assumed) above, with Y312L counted along it
Procedure: as §3, §4

Fc-eNKG2D1 (Y199F) = target: T7, Fc-eNKG2D1 (Y199F) (human); assay: as above
T7 construct: also called eNKG2D1 Y|F; not shown: human IgG1 Fc (without Fab domains)
T7 sequence (chain, as listed by the source Y199F Y199F): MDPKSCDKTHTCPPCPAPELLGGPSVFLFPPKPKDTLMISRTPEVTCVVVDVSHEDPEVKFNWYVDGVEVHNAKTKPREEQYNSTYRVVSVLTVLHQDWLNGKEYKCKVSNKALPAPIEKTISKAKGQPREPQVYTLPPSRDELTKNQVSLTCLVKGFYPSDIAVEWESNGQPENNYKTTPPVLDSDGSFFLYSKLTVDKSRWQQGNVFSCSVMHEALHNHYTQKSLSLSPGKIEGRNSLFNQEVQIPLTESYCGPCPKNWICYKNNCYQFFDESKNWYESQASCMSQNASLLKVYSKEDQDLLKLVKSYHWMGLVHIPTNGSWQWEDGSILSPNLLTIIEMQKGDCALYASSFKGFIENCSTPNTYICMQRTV
Procedure: as §3, §4

Fc-eNKG2D2 (Y152S) [10] = target: T8, Fc-eNKG2D2 (Y152S) (human); assay: as above
T8 construct: also called eNKG2D2 S|Y; not shown: human IgG1 Fc (without Fab domains)
T8 sequence (chain, as listed by the source Y152S Y152S): as the sequence (chain, as listed by the source Y199F Y199F) above, with Y310S, F357Y counted along it
Procedure: as §3, §4

Fc-NKG2D.Y152A = target: T9, Fc-NKG2D.Y152A (human); assay: as above
T9 construct: also called eNKG2D A|Y; Fc-NKG2D.YA
T9 sequence (chain, as listed by the source Y152A Y152A limits assumed): as the sequence (chain, as listed by the source limits assumed) above, with Y312A counted along it
Procedure: as §3, §4

Fc-eNKG2D3 (Y152T) [11] = target: T10, Fc-eNKG2D3 (Y152T) (human); assay: as above
T10 construct: also called eNKG2D3 T|Y
T10 sequence (chain, as listed by the source Y152T Y152T limits assumed): as the sequence (chain, as listed by the source limits assumed) above, with Y312T counted along it
Procedure: as §3, §4

[12] = target: T11, Fc-eNKG2D15 (Y152F/Y199F) (human); assay: ELISA, Fc-NKG2D coated, MicAbody titrated from 300 nM; ELISA, Fc-eNKG2D15 as capture agent, MicAbody titrated from 300 nM
T11 construct: also called eNKG2D15 F|F
T11 sequence (chain, as listed by the source Y152F Y199F Y152F Y199F limits assumed): as the sequence (chain, as listed by the source limits assumed) above, with Y312F, Y359F counted along it
Procedure: as §2

Fc-NKG2D.wt [13] = target: T4, Fc-NKG2D.wt; assay: ELISA, Fc-NKG2D coated, MicAbody titrated from 300 nM
Procedure: as §2

Fc-eNKG2D4 (Y152V) [14] = target: T5, Fc-eNKG2D4 (Y152V); assay: as above
Procedure: as §2

Fc-eNKG2D14 (Y152L) [15] = target: T6, Fc-eNKG2D14 (Y152L); assay: as above
Procedure: as §2

Fc-eNKG2D2 (Y152S) [16] = target: T8, Fc-eNKG2D2 (Y152S); assay: as above
Procedure: as §2

Fc-eNKG2D3 (Y152T) [17] = target: T10, Fc-eNKG2D3 (Y152T); assay: as above
Procedure: as §2

[18] = target: T12, Fc-eNKG2D13 (Y152E/Y199E) (human); assay: ELISA, Fc-eNKG2D coated, MicAbody titrated from 300 nM
T12 construct: also called eNKG2D13 E|E
T12 sequence (chain, as listed by the source Y152E Y199E Y152E Y199E limits assumed): as the sequence (chain, as listed by the source limits assumed) above, with Y312E, Y359E counted along it
Procedure: as §2

Fc-eNKG2D6 (Y152L/Y199F) = target: T13, Fc-eNKG2D6 (Y152L/Y199F) (human); assay: as above
T13 construct: also called eNKG2D6 L|F
T13 sequence (chain, as listed by the source Y152L Y199F Y152L Y199F limits assumed): as the sequence (chain, as listed by the source limits assumed) above, with Y312L, Y359F counted along it
Procedure: as §2

[19] = target: T14, Fc-eNKG2D12 (Y152D/Y199D) (human); assay: as above
T14 construct: also called eNKG2D12 D|D
T14 sequence (chain, as listed by the source Y152D Y199D Y152D Y199D limits assumed): as the sequence (chain, as listed by the source limits assumed) above, with Y312D, Y359D counted along it
Procedure: as §2

B1: α1-α2 variant 16 (His-tagged, with attached heterologous polypeptide) (ligand)
chain: EPHSLRYNLTVLSWDGSVQSGFLTEVHLDGQPFLRCDRQKCRAKPQGQWAEDVLGNKTWDRETRDLTGWGKDLRMTLAHIKDQKEGLHSLQEIRVCEIHEDNSTRSSQHFYYDGELFLSQNLETLEWTMPQSSRAQTLAMNVRNFLKEDAMETDTHYHAMRADCLQELRRYLKSGVVLRRTVPPMVQVTRSEASGGSGDRVTITCRASQDVSTAVAWYQQKPGKAPKLLIYSASFLYSGVPSRFSGSGSGTDFTLTISSLQPEDFATYYCQQSYTTPPTFGQGTKVEIKGGSSRSSSSGGGGSGGGGEVQLVESGGGLVQPGGSLRLSCAASGFTFTSTGISWVRQAPGKGLEWVGRIYPTNGSTNYADSVKGRFTISADTSKNTAYLQMNSLRAEDTAVYYCARTYGIYDLYVDYTEYVMDYWGQGTLVTVSSGGSSRSSSSGGGGSGGGGDIQMTQSPSSLSASGGSGQITVTCRASGFYPWNITLSWRQDGVSLSHDTQQWGDVLPDGQGTYQTWVATRISQGEEQRFTCYMEHSGQHSTHPVPSGKGSHHHHHH
[1]
  Kd: 0.5 nM
[2]
  koff: 9e-05 s⁻¹
  kon: 200000 M⁻¹ s⁻¹
[3]
  fold affinity increase relative to WT α1-α2: ~30 fold
  fold reduction in off-rate relative to WT: 18 fold
Human NKG2D-Fc [4]
  fold better binding than WT NKG2DL: 27 fold
[5]
  NKL cell-mediated lysis of FGFR3-expressing P815 cells (calcein release): ~15 fold
Human NKG2D-Fc [6]
  IC50: 0.7 nM

B2: α1-α2 variant 18 (His-tagged, with attached heterologous polypeptide) (ligand)
chain: EPHSLRYNLTVLSWDGSVQPGFLTEVHLDGQPFLRCDRQKCRAKPQGQWAEDVLGNKTWDRETRDLTLWGKDLRMTLAHIKDQKEGLHSLQEIRVCEIHEDNSTRSSQHFYYDGELFLSQNLETLEWTMPQSSRAQTLAMNVRNFLKEDAMETDTHYHAMRADCLQELRRYLKSGVVLRRTVPPMVQVTRSEASGGSGDRVTITCRASQDVSTAVAWYQQKPGKAPKLLIYSASFLYSGVPSRFSGSGSGTDFTLTISSLQPEDFATYYCQQSYTTPPTFGQGTKVEIKGGSSRSSSSGGGGSGGGGEVQLVESGGGLVQPGGSLRLSCAASGFTFTSTGISWVRQAPGKGLEWVGRIYPTNGSTNYADSVKGRFTISADTSKNTAYLQMNSLRAEDTAVYYCARTYGIYDLYVDYTEYVMDYWGQGTLVTVSSGGSSRSSSSGGGGSGGGGDIQMTQSPSSLSASGGSGQITVTCRASGFYPWNITLSWRQDGVSLSHDTQQWGDVLPDGQGTYQTWVATRISQGEEQRFTCYMEHSGQHSTHPVPSGKGSHHHHHH
[1]
  Kd: 0.4 nM
[2]
  koff: 9e-05 s⁻¹
  kon: 230000 M⁻¹ s⁻¹
[3]
  fold affinity increase relative to WT α1-α2: ~30 fold
  fold reduction in off-rate relative to WT: 18 fold
Human NKG2D-Fc [4]
  fold better binding than WT NKG2DL: 38 fold
[5]
  NKL cell-mediated lysis of FGFR3-expressing P815 cells (calcein release): ~15 fold
Human NKG2D-Fc [6]
  IC50: 0.5 nM

B3: α1-α2 variant 17 (His-tagged, with attached heterologous polypeptide) (ligand)
chain: EPHSLRYNLTVLSWDGSVQSGFLTEVHLDGQPFLRCDRQKCRAKPQGQWAEDVLGNKTWDRETRDLTLWGKDLRMTLAHIKDQKEGLHSLQEIRVCEIHEDNSTRSSQHFYYDGELFLSQNLETLEWTMPQSSRAQTLAMNVRNFLKEDAMETDTHYHAMRADCLQELRRYLKSGVVLRRTVPPMVQVTRSEASGGSGDRVTITCRASQDVSTAVAWYQQKPGKAPKLLIYSASFLYSGVPSRFSGSGSGTDFTLTISSLQPEDFATYYCQQSYTTPPTFGQGTKVEIKGGSSRSSSSGGGGSGGGGEVQLVESGGGLVQPGGSLRLSCAASGFTFTSTGISWVRQAPGKGLEWVGRIYPTNGSTNYADSVKGRFTISADTSKNTAYLQMNSLRAEDTAVYYCARTYGIYDLYVDYTEYVMDYWGQGTLVTVSSGGSSRSSSSGGGGSGGGGDIQMTQSPSSLSASGGSGQITVTCRASGFYPWNITLSWRQDGVSLSHDTQQWGDVLPDGQGTYQTWVATRISQGEEQRFTCYMEHSGQHSTHPVPSGKGSHHHHHH
[1]
  Kd: 0.4 nM
[2]
  koff: 7e-05 s⁻¹
  kon: 200000 M⁻¹ s⁻¹
[3]
  fold affinity increase relative to WT α1-α2: ~30 fold
  fold reduction in off-rate relative to WT: 18 fold
Human NKG2D-Fc [4]
  fold better binding than WT NKG2DL: 32 fold
[5]
  NKL cell-mediated lysis of FGFR3-expressing P815 cells (calcein release): ~15 fold
Human NKG2D-Fc [6]
  IC50: 0.6 nM

B4: trastuzumab-MICwed MicAbody (bispecific antibody, human IgG1, kappa)
heavy: not shown
light: not shown
chain: EPHSLRYNLTVLSWDGSVQSGFLTEVHLDGQPFLRCDRQKCRAKPQGQWAEDVLGNKTWDRETRDLTGWGKDLRMTLAHIKDQKEGLHSLQEIRVCEIHEDNSTRSSQHFYYDGELFLSQNLETKEWTMPQSSRAQTLAMNVRNFLKEDAMETDTHYHAMHADCLQELRRYLKSGVVLRRTV
Fc-NKG2D.wt [7]
  EC50: 0.007 nM
Fc-eNKG2D4 (Y152V) [8]
  percent of the maximal binding response of Fc-NKG2D.wt: 50%
Fc-eNKG2D14 (Y152L) [9]
  percent of the maximal binding response of Fc-NKG2D.wt: 50%
Fc-eNKG2D1 (Y199F)
  percent of the maximal binding response of Fc-NKG2D.wt: 100%
Fc-eNKG2D2 (Y152S) [10]
  percent of the maximal binding response of Fc-NKG2D.wt: 50%
Fc-NKG2D.Y152A
  percent of the maximal binding response of Fc-NKG2D.wt: 50%
Fc-eNKG2D3 (Y152T) [11]
  percent of the maximal binding response of Fc-NKG2D.wt: 50%
[12]
  EC50: 31.3 nM
Fc-NKG2D.wt [13]
  EC50: 0.0067 nM
Fc-eNKG2D4 (Y152V) [14]
  EC50: 4.84 nM
Fc-eNKG2D14 (Y152L) [15]
  EC50: 9.39 nM
Fc-eNKG2D2 (Y152S) [16]
  EC50: 4.16 nM
Fc-eNKG2D3 (Y152T) [17]
  EC50: 4.33 nM
[18]
  binding result: no binding (tested: 300 nM)
Fc-eNKG2D6 (Y152L/Y199F)
  binding result: no binding (tested: 300 nM)
[19]
  binding result: no binding (tested: 300 nM)

Reference: patent publication US20200239541A1 (XYPHOS BIOSCIENCES, published 2020)
